To fix the notation:
T1: EmrB (modified EmrB, the BRIL-EmrB-ALFA part of the EmrB-EmrA fusion protein) (E. coli K-12 strain MG1655, UniProt P0AEJ0 13-498)
T1 construct: also called EmrB IM transporter; EmrB-EmrA fusion protein (EmrB part); not shown: BRIL (thermostabilized apocytochrome b562RIL), N-terminal, kept; ALFA, C-terminal, kept
T1 sequence: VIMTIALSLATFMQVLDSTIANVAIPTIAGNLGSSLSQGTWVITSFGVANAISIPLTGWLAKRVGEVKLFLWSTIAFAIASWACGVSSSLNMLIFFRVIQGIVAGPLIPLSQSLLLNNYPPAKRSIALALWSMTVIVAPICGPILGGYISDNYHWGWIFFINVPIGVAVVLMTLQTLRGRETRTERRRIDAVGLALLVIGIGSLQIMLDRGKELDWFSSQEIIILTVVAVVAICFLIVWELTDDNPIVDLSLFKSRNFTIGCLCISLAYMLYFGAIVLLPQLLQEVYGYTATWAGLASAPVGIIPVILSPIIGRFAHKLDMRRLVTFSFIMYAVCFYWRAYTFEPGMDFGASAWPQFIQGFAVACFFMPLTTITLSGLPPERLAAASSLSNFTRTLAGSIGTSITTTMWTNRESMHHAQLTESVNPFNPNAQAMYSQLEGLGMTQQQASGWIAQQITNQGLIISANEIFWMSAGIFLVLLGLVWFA

T2: TolC (TolC-FLAG) (E. coli K-12 strain MG1655, UniProt P02930 23-493)
T2 construct: also called TolC OM channel; not shown: FLAG, C-terminal, kept
T2 sequence: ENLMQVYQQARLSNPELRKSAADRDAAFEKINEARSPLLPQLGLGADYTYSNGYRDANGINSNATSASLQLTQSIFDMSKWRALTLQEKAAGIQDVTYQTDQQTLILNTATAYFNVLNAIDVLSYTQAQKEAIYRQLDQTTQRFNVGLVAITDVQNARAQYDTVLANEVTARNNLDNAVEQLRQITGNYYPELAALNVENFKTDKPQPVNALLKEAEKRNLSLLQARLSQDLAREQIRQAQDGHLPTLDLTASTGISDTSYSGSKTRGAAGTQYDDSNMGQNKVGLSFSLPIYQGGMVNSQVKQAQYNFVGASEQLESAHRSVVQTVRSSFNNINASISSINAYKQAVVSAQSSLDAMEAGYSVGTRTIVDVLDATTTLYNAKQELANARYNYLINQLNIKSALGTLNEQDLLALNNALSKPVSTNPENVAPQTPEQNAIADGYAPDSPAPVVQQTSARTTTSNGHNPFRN

B1: modified free EmrA (N-terminal residues 1-47 replaced by residues 1-27 of AcrA) (other)
chain: CDDHFEETDDAYVAGNQIQIMSQVSGSVTKVWADNTDFVKEGDVLVTLDPTDARQAFEKAKTALASSVRQTHQLMINSKQLQANIEVQKIALAKAQSDYNRRVPLGNANLIGREELQHARDAVTSAQAQLDVAIQQYNANQAMILGTKLEDQPAVQQAATEVRNAWLALERTRIISPMTGYVSRRAVQPGAQISPTTPLMAVVPATNMWVDANFKETQIANMRIGQPVTITTDIYGDDVKYTGKVVGLDMGTGSAFSLLPAQNATGNWIKVVQRLPVRIELDQKQLEQYPLRIGLSTLVSVNTTNRDGQVLANKVRSTPVAVSTAREISLAPVNKLIDDIVKANAG
modifications: C25 (AcrA numbering) modified by a palmitoyl acid chain
notes: also called acrAsignal-ΔemrA; free EmrA of pump-EA
B2: wild-type free EmrA (natural protein)
chain: MSANAETQTPQQPVKKSGKRKRLLLLLTLLFIIIAVAIGIYWFLVLRHFEETDDAYVAGNQIQIMSQVSGSVTKVWADNTDFVKEGDVLVTLDPTDARQAFEKAKTALASSVRQTHQLMINSKQLQANIEVQKIALAKAQSDYNRRVPLGNANLIGREELQHARDAVTSAQAQLDVAIQQYNANQAMILGTKLEDQPAVQQAATEVRNAWLALERTRIISPMTGYVSRRAVQPGAQISPTTPLMAVVPATNMWVDANFKETQIANMRIGQPVTITTDIYGDDVKYTGKVVGLDMGTGSAFSLLPAQNATGNWIKVVQRLPVRIELDQKQLEQYPLRIGLSTLVSVNTTNRDGQVLANKVRSTPVAVSTAREISLAPVNKLIDDIVKANAG
notes: also called free EmrA of pump-FA
B3: EmrA (EmrA part of the EmrB-EmrA fusion protein, C-terminal 6His) (natural protein)
chain: B2 chain
notes: also called EmrB-EmrA fusion protein (EmrA part); fused EmrA; not shown: His6, C-terminal, kept

The target of data set [1] is T1, EmrB (modified EmrB, the BRIL-EmrB-ALFA …). Kind of data set: cryo-EM structure; EmrAB-TolC pump-EA (EmrB-EmrA fusion protein, modified free EmrA, TolC-FLAG), co-expressed and purified as a complex, in peptidisc, 0.7 mg/mL, holey carbon grids; single-particle cryo-EM, 300 kV; maps at 3.13 Å and 3.14 Å. To be noted: both partners purified.
Data set [2] has as its target B3. Described as above. Particulars: both partners purified.
Data set [3] concerns the target T2, TolC (TolC-FLAG). The description is as above. Particulars: both partners purified.
Data set [4] deals with the molecule itself. The data set is described as above.
In data set [5] the target is T1, EmrB (modified EmrB, the BRIL-EmrB-ALFA …). Nature of the data set: cryo-EM structure; EmrAB-TolC pump-FA (EmrB-EmrA fusion protein, wild-type free EmrA, TolC-FLAG), co-expressed and purified as a complex, in peptidisc, 0.1 mg/mL, graphene-covered grids; single-particle cryo-EM, 300 kV; maps at 3.59 Å and 3.66 Å. Particulars: both partners purified.
The target of data set [6] is T2, TolC (TolC-FLAG). The description is as above. Particulars: both partners purified.
Data set [7] concerns the molecule itself. The description is as above.

For B1, the binding result in data set [1], in data set [2] and in data set [3] was “binds” each time. Besides, the “stoichiometry N” value in data set [4] turned out to be 6.
In the case of B2, the binding result in data set [5] and in data set [6] was “binds” throughout. The “stoichiometry N” value in data set [7] stood at 6.
As to B3, the binding result in data set [1] and in data set [6] was “binds” in each case.

The record behind these values is PMC13139468, “A model for drug transport across two membranes of Gram-negative bacteria by an MFS tripartite assembly” (Nature Communications, 2026).
